Test results from PMC6891087.

Columns and labels:
CPC_LM BOR K198/T199E = test: SPR; details: SPR: 25 mM Hepes pH 8, 250 mM NaCl, 1 mM DTT, 0.05% Tween-20, 8 C; EMSA: 10 mM Tris pH 7.5, 100 mM NaCl, 1 mM MgCl2, 1 mM DTT, 1% glycerol, 0.1 mg/ml BSA, 20 nM
[1] = test system: CPC_LM (Borealin-Survivin-INCENP1-58); test: SPR; details: SPR: 25 mM Hepes pH 8, 250 mM NaCl, 1 mM DTT, 0.05% Tween-20, 8 C, EMSA: 10 mM Tris pH 7.5, 100 mM NaCl, 1 mM MgCl2, 1 mM DTT, 1% glycerol, 0.1 mg/ml BSA, 20 nM
CPC_LM delta189-206 = test: SPR; details: SPR: 25 mM Hepes pH 8, 250 mM NaCl, 1 mM DTT, 0.05% Tween-20, 8 C; EMSA: 10 mM Tris pH 7.5, 100 mM NaCl, 1 mM MgCl2, 1 mM DTT, 1% glycerol, 0.1 mg/ml BSA, 20 nM
CPC_LM BOR K12/R17/K20E = test: SPR; details: SPR: 25 mM Hepes pH 8, 250 mM NaCl, 1 mM DTT, 0.05% Tween-20, 8 C, EMSA: 10 mM Tris pH 7.5, 100 mM NaCl, 1 mM MgCl2, 1 mM DTT, 1% glycerol, 0.1 mg/ml BSA, 20 nM
CPC_LM delta110-188 = test: SPR; details: SPR: 25 mM Hepes pH 8, 250 mM NaCl, 1 mM DTT, 0.05% Tween-20, 8 C; EMSA: 10 mM Tris pH 7.5, 100 mM NaCl, 1 mM MgCl2, 1 mM DTT, 1% glycerol, 0.1 mg/ml BSA, 20 nM
CPC_LM BOR 10-end = test: SPR; details: SPR: 25 mM Hepes pH 8, 250 mM NaCl, 1 mM DTT, 0.05% Tween-20, 8 C; EMSA: 10 mM Tris pH 7.5, 100 mM NaCl, 1 mM MgCl2, 1 mM DTT, 1% glycerol, 0.1 mg/ml BSA, 20 nM
[2] = molecular target: unmodified nucleosome core particle (human | Xenopus laevis) (UniProt P04908); test: SPR; biotinylated NCPs immobilised (~500 RU) on a streptavidin chip, BIAcore T200; analytes 7.8 to 1,000 nM; 8°C; 25 mM Hepes, 250 mM NaCl, 1 mM DTT, 0.05% Tween-20, pH 8; steady-state 1:1 fit
[3] = molecular target: nucleosome core particle with histone H3 phosphorylated at Thr3 (human | not stated | Xenopus laevis) (UniProt P04908); test: as above
Sumo-Borealin189-206 = test: SPR; details: apparent, from normalized response; SPR: 25 mM Hepes pH 8, 250 mM NaCl, 1 mM DTT, 0.05% Tween-20, 8 C; EMSA: 10 mM Tris pH 7.5, 100 mM NaCl, 1 mM MgCl2, 1 mM DTT, 1% glycerol, 0.1 mg/ml BSA, 20 nM
Sumo-Borealin110-206 = test: SPR; details: apparent, from normalized response; SPR: 25 mM Hepes pH 8, 250 mM NaCl, 1 mM DTT, 0.05% Tween-20, 8 C; EMSA: 10 mM Tris pH 7.5, 100 mM NaCl, 1 mM MgCl2, 1 mM DTT, 1% glycerol, 0.1 mg/ml BSA, 20 nM
Sumo-Borealin110-188 = test: SPR; details: apparent, from normalized response; SPR: 25 mM Hepes pH 8, 250 mM NaCl, 1 mM DTT, 0.05% Tween-20, 8 C; EMSA: 10 mM Tris pH 7.5, 100 mM NaCl, 1 mM MgCl2, 1 mM DTT, 1% glycerol, 0.1 mg/ml BSA, 20 nM
CPC_LM BOR delta-loop = test: SPR; details: apparent, from normalized response; >=20 in review history; SPR: 25 mM Hepes pH 8, 250 mM NaCl, 1 mM DTT, 0.05% Tween-20, 8 C; EMSA: 10 mM Tris pH 7.5, 100 mM NaCl, 1 mM MgCl2, 1 mM DTT, 1% glycerol, 0.1 mg/ml BSA, 20 nM
[4] = histone H3 phospho-T3 (native chemical ligation; C110A, residue 32 C)

For unmodified NCP (601), the Kd (CPC_LM BOR K198/T199E) was 0.4 µM, the Kd [1] was 0.295 µM and the Kd (CPC_LM delta189-206) was 0.26 µM. The Kd (CPC_LM BOR K12/R17/K20E) was 0.528 µM, the Kd (CPC_LM delta110-188) was 1.8 µM and the Kd (CPC_LM BOR 10-end) was 0.86 µM.
“CPC_LM containing Borealin lacking the N-terminal half of the loop (residues 110-188) (from UniProt Q53HL2 1-280; O15392 1-142; Q9NQS7 1-58) (complex)” gave a Kd [2] of 1.8 µM.
“CPC_LM containing Borealin lacking the C-terminal half of the loop (residues 189-206) (from UniProt Q53HL2 1-280; O15392 1-142; Q9NQS7 1-58) (complex)” was tested, and the Kd [2] was 0.26 µM.
“CPC_LM containing Borealin K12/R17/K20E (from UniProt Q53HL2 1-280; O15392 1-142; Q9NQS7 1-58) (complex)” gave a Kd [2] of 0.528 µM.
H3T3ph NCP (601) gave a Kd [1, 4] of 0.103 µM and a Kd (CPC_LM BOR K12/R17/K20E; [4]) of 0.672 µM.
Substance “CPC localization module (Borealin-Survivin-INCENP 1-58) (from UniProt Q53HL2 1-280; O15392 1-142; Q9NQS7 1-58) (complex)” has a Kd [2] of 0.295 µM, a stoichiometry N (CPC LM dimer per NCP) [2] of 1 and a Kd [3] of 0.103 µM.
Work on DNA (SPR ligand; presumably 601) yielded a Kd (Sumo-Borealin189-206) of 20 µM, a Kd (Sumo-Borealin110-206) of 5 µM and a Kd ([1]; apparent, from normalized response, >=5 in review history) of 5 µM. It also gave a Kd (Sumo-Borealin110-188) of 10 µM and a Kd (CPC_LM BOR delta-loop) of 20 µM.
In the case of “CPC_LM containing Borealin 10-end (from UniProt Q53HL2 10-280; O15392 1-142; Q9NQS7 1-58) (complex)”, the Kd [2] is reported as 0.86 µM.
